Measurements reported in FireProtDB (doi:10.1016/j.jmb.2004.10.057).
Several values for one entry are separate records, joined by “and”; a condition that tells them apart may be missing. Identical values can stand only once.

Conditions: Mus musculus, pH 7.4, 20 °C, Tris-HCl 20 mM, whole UniProt chain shown

B1: Adenosine deaminase wild type, P03958 (protein)
chain: MAQTPAFNKPKVELHVHLDGAIKPETILYFGKKRGIALPADTVEELRNIIGMDKPLSLPGFLAKFDYYMPVIAGCREAIKRIAYEFVEMKAKEGVVYVEVRYSPHLLANSKVDPMPWNQTEGDVTPDDVVDLVNQGLQEGEQAFGIKVRSILCCMRHQPSWSLEVLELCKKYNQKTVVAMDLAGDETIEGSSLFPGHVEAYEGAVKNGIHRTVHAGEVGSPEVVREAVDILKTERVGHGYHTIEDEALYNRLLKENMHFEVCPWSSYLTGAWDPKTTHAVVRFKNDKANYSLNTDDPLIFKSTLDTDYQMTKKDMGFTEEEFKRLNINAAKSSFLPEEEKKELLERLYREYQ
Question: For B1, which denaturant m value (GdnHCl, Fluorescence) is on record?
Answer: Its denaturant m value is 2.08 kcal/mol/M.

Question: What about the “denaturant midpoint (higher = more stable)” value (“denaturant midpoint” below) (GdnHCl, Fluorescence) of the same protein?
Answer: The value was 1.91 M.

Question: And the unfolding free energy (GdnHCl, Fluorescence)?
Answer: Its unfolding free energy is 3.98 kcal/mol.

Question: And the unfolding free energy (Urea, CD)?
Answer: The unfolding free energy was 5.78 kcal/mol and 7.39 kcal/mol.

Question: And the “denaturant midpoint” value (Urea, Enzyme assay)?
Answer: Its value is 0.68 M.

Question: What about the denaturant m value (Urea, Fluorescence) of the same protein?
Answer: The denaturant m value was 0.79 kcal/mol/M.

Question: And the “denaturant midpoint” value (Urea, Fluorescence)?
Answer: Its value is 6.19 M.

Question: And the unfolding free energy (Urea, Fluorescence)?
Answer: Its unfolding free energy is 4.89 kcal/mol.
